This note sets out measurements from patent US20120276124A1 (Sanofi, published 2012).

First the molecules themselves.
B1: hu2H11R35R74-PEG4-NHAc-DM4 (antibody, human IgG1, kappa, V domains shown)
VH: QVQLVQSGAEVVKPGASVKISCKASGYTFTAYYMHWVKQSPVQSLEWIGLVNPYNGFSSYNQKFQGKASLTVDRSSSTAYMELHSLTSEDSAVYYCAREFYGYRYFDVWGQGTAVTVSS
VL: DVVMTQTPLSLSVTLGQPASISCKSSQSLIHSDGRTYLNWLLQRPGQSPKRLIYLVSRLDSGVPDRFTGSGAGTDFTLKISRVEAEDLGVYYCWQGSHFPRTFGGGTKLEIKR
modifications: may carry L-DM4 through the AcNH-PEG4 linker; sites not stated; maytansinoid L-DM4 attached through the AcNH-PEG4 linker (NHS activated ester; sites not stated); average DAR (UV) 5.9 for the whole antibody
B2: hu2H11R35R74-PEG8-NHAc-DM4 (antibody, human IgG1, kappa, V domains shown)
VH: B1 VH
VL: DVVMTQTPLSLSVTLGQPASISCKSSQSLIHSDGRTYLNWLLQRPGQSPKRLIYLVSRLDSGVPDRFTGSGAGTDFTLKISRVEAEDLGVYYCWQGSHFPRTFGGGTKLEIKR
modifications: may carry L-DM4 through the AcNH-PEG8 linker; sites not stated; maytansinoid L-DM4 attached through the AcNH-PEG8 linker (NHS activated ester; sites not stated); average DAR (UV) 4.9 for the whole antibody
B3: hu2H11R35R74-PEG4-NMeAc-DM4 (antibody, human IgG1, kappa, V domains shown)
VH: B1 VH
VL: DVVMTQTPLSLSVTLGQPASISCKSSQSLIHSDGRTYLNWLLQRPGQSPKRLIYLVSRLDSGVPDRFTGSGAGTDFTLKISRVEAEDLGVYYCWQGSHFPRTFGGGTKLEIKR
modifications: may carry L-DM4 through the AcNMe-PEG4 linker; sites not stated; maytansinoid L-DM4 attached through the AcNMe-PEG4 linker (NHS activated ester; sites not stated); average DAR (UV) 5.4 for the whole antibody
B4: hu2H11R35R74-PEG4-Allyl-DM4 (antibody, human IgG1, kappa, V domains shown)
VH: B1 VH
VL: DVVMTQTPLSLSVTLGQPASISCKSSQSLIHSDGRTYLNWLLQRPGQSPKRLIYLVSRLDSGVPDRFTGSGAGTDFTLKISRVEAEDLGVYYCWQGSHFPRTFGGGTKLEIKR
modifications: may carry L-DM4 through the Allyl-PEG4 linker; sites not stated; maytansinoid L-DM4 attached through the Allyl-PEG4 linker (NHS activated ester; sites not stated); average DAR (UV) 5.3 for the whole antibody

Sequence of EphA2 receptor (P29317 24-976 limits assumed): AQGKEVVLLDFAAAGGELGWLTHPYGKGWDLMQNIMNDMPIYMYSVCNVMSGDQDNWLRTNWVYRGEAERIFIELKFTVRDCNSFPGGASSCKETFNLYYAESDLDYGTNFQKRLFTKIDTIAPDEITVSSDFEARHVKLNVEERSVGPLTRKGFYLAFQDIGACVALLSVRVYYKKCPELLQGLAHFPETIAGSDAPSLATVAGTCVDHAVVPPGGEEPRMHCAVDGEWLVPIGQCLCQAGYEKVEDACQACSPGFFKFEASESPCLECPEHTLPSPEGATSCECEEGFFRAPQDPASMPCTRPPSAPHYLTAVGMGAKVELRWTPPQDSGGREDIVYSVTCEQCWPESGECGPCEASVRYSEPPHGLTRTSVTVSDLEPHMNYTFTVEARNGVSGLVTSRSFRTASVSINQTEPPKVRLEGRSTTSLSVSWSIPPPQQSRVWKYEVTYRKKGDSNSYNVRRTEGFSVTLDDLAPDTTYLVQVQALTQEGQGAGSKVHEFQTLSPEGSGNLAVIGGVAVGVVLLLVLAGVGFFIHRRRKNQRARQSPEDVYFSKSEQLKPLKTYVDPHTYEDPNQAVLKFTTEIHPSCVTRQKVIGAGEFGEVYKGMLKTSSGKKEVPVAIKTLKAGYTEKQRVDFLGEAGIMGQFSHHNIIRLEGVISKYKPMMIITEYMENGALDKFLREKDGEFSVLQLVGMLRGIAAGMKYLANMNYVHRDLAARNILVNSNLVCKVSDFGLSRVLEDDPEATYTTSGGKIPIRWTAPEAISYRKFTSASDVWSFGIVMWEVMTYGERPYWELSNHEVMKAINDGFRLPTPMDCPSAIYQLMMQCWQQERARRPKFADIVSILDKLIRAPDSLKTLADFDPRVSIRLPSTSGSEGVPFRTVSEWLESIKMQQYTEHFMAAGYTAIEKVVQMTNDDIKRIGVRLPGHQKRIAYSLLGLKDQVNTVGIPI

This assay addresses EphA2 receptor (UniProt P29317 24-976, limits assumed). The assay is described as follows: cell-based or functional assay.
Regarding B1, the “IC50 [pM], +naked hu2H11R35R74 (1 uM); inhibition of growth of MDA-MB231 cells (14C-thymidine uptake)” value worked out at 29700 pM; the “IC50 [pM], conjugate alone; inhibition of growth of MDA-MB231 cells (14C-thymidine uptake)” value (shortened to “IC50 [pM], conjugate alone; inhibition”) turned out to be 147 pM; the “ratio (IC50 +naked hu2H11R35R74 / conjugate alone)” value came to 202.

Regarding B2, the “IC50 [pM], +naked hu2H11R35R74 (1 uM); inhibition of growth of MDA-MB231 cells (14C-thymidine uptake)” value was 25000 pM; the “IC50 [pM], conjugate alone; inhibition” value is 400 pM; the “ratio (IC50 +naked hu2H11R35R74 / conjugate alone)” value is 62.

As for B3, the “IC50 [pM], +naked hu2H11R35R74 (1 uM); inhibition of growth of MDA-MB231 cells (14C-thymidine uptake)” value came out at 36400 pM; the “IC50 [pM], conjugate alone; inhibition” value came to 217 pM; the “ratio (IC50 +naked hu2H11R35R74 / conjugate alone)” value worked out at 168.

B4: the “IC50 [pM], +naked hu2H11R35R74 (1 uM); inhibition of growth of MDA-MB231 cells (14C-thymidine uptake)” value is 7820 pM; the “IC50 [pM], conjugate alone; inhibition” value was 161 pM; the “ratio (IC50 +naked hu2H11R35R74 / conjugate alone)” value worked out at 49.
